Assays:
[1] = biological target: T1, GP2 on K562-GP2 cells (UniProt P55259 29-512, limits assumed); test: 24 h co-culture of MSLN CAR (LG1 CAR) T cells with K562-GP2 target cells, end-point luciferase cytotoxicity, RNP-only T cells as control
T1 construct: whole, on cells
Excerpt: (§1) T cells from four donors were engineered to constitutively express the MSLN CAR (LG1 CAR) using the manufacturing process described in Example 1 and were frozen and cryobanked at Day 9 after initial activation. […] On the day of the assay, MSLN CAR and RNP only control T cells were counted and resuspended in medium without IL-7 and IL-15 and serially diluted and added to 96-well flat-bottom, white-walled assay plates. The serial dilution of T cells results in the following co-culture effector:target (E:T) ratios once 1e4 THP-1 or K562 (negative control), K562-MSLN (positive control) and K562-GP2 target cells were added/well: 3:1, 1:1, 1:3 in technical duplicates. Prepared plates with T cells and target cells were incubated at 37° C. for 24 hours with a breathable membrane on each plate. Cytotoxicity at the end of the 24 hour co-culture was measured using an end-point luciferase assay.

[2] = biological target: T2, ALPG-AF647 (human, UniProt P10696, AF647 fluorophore label, site not given); test: flow cytometry, primary T cells with constitutive CAR and no PrimeR, stained with ALPG-AF647 and MSLN-Bio / streptavidin-PE; reagent concentration not given
T2 construct: soluble labelled staining reagent; Same protein as m5, here as a soluble staining reagent
T2 sequence (P10696 20-503 limits assumed): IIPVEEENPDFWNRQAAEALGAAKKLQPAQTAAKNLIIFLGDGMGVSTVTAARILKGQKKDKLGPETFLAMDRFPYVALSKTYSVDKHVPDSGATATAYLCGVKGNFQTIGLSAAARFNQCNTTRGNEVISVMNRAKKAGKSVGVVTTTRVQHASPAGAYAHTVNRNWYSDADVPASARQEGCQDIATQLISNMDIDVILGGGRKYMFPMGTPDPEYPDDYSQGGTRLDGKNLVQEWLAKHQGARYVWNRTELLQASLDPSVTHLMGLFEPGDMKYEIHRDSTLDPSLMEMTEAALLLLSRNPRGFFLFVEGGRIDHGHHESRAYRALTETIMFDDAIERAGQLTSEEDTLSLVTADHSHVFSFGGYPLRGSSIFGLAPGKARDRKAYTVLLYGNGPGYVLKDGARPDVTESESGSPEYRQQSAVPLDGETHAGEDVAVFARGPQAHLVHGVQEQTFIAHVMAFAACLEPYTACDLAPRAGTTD

[3] = biological target: T3, SLC2A9 on THP-1 cells (UniProt Q9NRM0 1-540, limits assumed); test: 24 h co-culture of MSLN CAR (LG1 CAR) T cells with THP-1 (SLC2A9+) target cells, end-point luciferase cytotoxicity, RNP-only T cells as control
T3 construct: whole, on cells; also called SLC2A9+ cells (THP-1 cells)
T3 sequence (looked up): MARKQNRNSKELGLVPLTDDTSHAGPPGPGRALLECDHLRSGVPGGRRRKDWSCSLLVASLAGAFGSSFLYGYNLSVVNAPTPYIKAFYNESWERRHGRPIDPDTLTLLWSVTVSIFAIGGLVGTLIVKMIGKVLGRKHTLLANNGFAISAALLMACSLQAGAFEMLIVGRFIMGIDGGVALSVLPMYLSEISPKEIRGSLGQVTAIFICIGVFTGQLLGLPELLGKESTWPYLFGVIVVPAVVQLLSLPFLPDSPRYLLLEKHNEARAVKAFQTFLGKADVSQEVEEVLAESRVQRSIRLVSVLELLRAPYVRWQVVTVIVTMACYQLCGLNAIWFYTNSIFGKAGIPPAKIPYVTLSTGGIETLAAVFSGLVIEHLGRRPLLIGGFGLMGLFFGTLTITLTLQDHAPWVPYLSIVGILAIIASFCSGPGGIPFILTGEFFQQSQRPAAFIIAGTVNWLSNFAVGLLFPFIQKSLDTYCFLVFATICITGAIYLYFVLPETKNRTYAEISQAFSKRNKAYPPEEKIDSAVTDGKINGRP
Excerpt: as §1

T1 sequence (P55259 29-512 limits assumed): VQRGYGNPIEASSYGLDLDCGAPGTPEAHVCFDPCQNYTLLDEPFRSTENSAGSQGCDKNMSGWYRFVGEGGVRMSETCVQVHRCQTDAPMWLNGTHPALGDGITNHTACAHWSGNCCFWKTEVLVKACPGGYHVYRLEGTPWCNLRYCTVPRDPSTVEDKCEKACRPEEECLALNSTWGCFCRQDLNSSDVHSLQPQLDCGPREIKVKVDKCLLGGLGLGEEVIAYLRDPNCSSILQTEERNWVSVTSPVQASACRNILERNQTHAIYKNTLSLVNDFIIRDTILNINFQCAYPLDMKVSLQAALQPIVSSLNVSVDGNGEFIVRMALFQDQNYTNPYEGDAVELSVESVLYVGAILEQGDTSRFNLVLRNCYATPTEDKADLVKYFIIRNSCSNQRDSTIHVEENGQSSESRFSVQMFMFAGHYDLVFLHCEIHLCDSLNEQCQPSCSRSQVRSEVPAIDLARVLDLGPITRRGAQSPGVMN

binding result [2]: no binding
B1: MSLN CAR (LG1 CAR) (other)
chain: QLQLQESGPGLVKPSETLSLTCTVSGGSISNSYYWGWIRQPPGKGLEWIGSIYHSGNTYYNPSLKSRVTISVDTSKNQFSLKLSSVTAADTAVYYCVTQDGVGATTTEEYWGQGTLVTVSSAAATTTPAPRPPTPAPTIASQPLSLRPEACRPAAGGAVHTRGLDFACDIYIWAPLAGTCGVLLLSLVITLYCKRGRKKLLYIFKQPFMRPVQTTQEEDGCSCRFPEEEEGGCELRVKFSRSADAPAYQQGQNQLYNELNLGRREEYDVLDKRRGRDPEMGGKPRRKNPQEGLYNELQKDKMAEAYSEIGMKGERRRGKGHDGLYQGLSTATKDTYDALHMQALPPR
notes: Chimeric antigen receptor on engineered primary human T cells; also called MSLN LG1 CAR
binding result [1]: no binding (tested: E:T 3:1)
binding result [3]: no binding (tested: E:T 3:1)

— patent publication US20250250350A1 (ARSENAL BIOSCIENCES, published 2025)
